The values below come from publication PMC5552956, “The PAS domains of the major sporulation kinase in Bacillus subtilis play a role in tetramer formation that is essential for the autokinase activity” (MicrobiologyOpen, 2017).

Several values for one entry are separate records, joined by “and”; a condition that tells them apart may be missing. Identical values can stand only once.

The target in data set [1] is PAS-BC-GFP-his6 (Bacillus subtilis). The data set can be described thus: native gel or EMSA; blue native PAGE (4-16% gradient gel) of Ni-NTA eluates, immunoblot with anti-GFP antibodies; sizes from a regression line of NativeMark standards. (In general: A gel shift assay detects complexes by their altered migration in electrophoresis.)
Data set [2] has as its target KinAN-GFP (Bacillus subtilis). The data set can be described thus: cross-linking; cell extracts of B. subtilis lacking native kinA (LB, 10 μmol/L IPTG) incubated with or without bis-maleimidohexane (BMH, sulfhydryl-specific); SDS-PAGE (10%), immunoblot with anti-GFP antibodies; sizes from a regression line of mass standards. For orientation: In western blotting, separated proteins are transferred to a membrane and probed.

Data set [3] concerns the target KinAN-GFP-his6 (Bacillus subtilis). Kind of data set: native gel or EMSA; blue native PAGE (4-16% gradient gel) of Ni-NTA eluates, immunoblot with anti-GFP antibodies; sizes from a regression line of NativeMark standards.
For data set [4], the target named is KinA^ΔPAS-A-GFP (Bacillus subtilis). Kind of data set: cross-linking; cell extracts of B. subtilis lacking native kinA (LB, 10 μmol/L IPTG) incubated with or without bis-maleimidohexane (BMH, sulfhydryl-specific); SDS-PAGE (10%), immunoblot with anti-GFP antibodies; sizes from a regression line of mass standards.
Data set [5] concerns the molecule itself. The description is as above.

One may read the stoichiometry N as the number of molecules, sites or subunits per partner or assembly. Regarding PAS-BC-GFP-his6 (domain or fragment), the stoichiometry N in data set [1] was 4 and 2.
Regarding KinAN-GFP (domain or fragment), the stoichiometry N in data set [2] came to 4.
KinAN-GFP-his6 (domain or fragment): the stoichiometry N in data set [3] is 4 and 2.
KinA^ΔPAS-A-GFP (domain or fragment) registered a stoichiometry N in data set [4] of 4.

B1: KinA^ΔPAS-AB-GFP (domain or fragment, Bacillus subtilis, UniProt P16497 259-606, looked up)
chain: QTILQKSRERYQLLIQNSIDTIAVIHNGKWVFMNESGISLFEAATYEDLIGKNIYDQLHPCDHEDVKERIQNIAEQKTESEIVKQSWFTFQNRVIYTEMVCIPTTFFGEAAVQVILRDISERKQTEELMLKSEKLSIAGQLAAGIAHEIRNPLTAIKGFLQLMKPTMEGNEHYFDIVFSELSRIELILSELLMLAKPQQNAVKEYLNLKKLIGEVSALLETQANLNGIFIRTSYEKDSIYINGDQNQLKQVFINLIKNAVESMPDGGTVDIIITEDEHSVHVTVKDEGEGIPEKVLNRIGEPFLTTKEKGTGLGLMVTFNIIENHQGVIHVDSHPEKGTAFKISFPKK
notes: KinA of Bacillus subtilis without PAS-A and PAS-B; 'our autokinase-deficient PAS-AB mutant (aa 259-606)'; also called MF3356; source: B. subtilis lacking the native kinA gene, IPTG-inducible promoter (10 μmol/L IPTG, LB), in cell extract
In the case of B1, the “stoichiometry N” value in data set [5] worked out at 2.

B2: full-length KinA-GFP (natural protein, Bacillus subtilis, UniProt P16497 1-606, looked up)
chain: MEQDTQHVKPLQTKTDIHAVLASNGRIIYISANSKLHLGYLQGEMIGSFLKTFLHEEDQFLVESYFYNEHHLMPCTFRFIKKDHTIVWVEAAVEIVTTRAERTEREIILKMKVLEEETGHQSLNCEKHEIEPASPESTTYITDDYERLVENLPSPLCISVKGKIVYVNSAMLSMLGAKSKDAIIGKSSYEFIEEEYHDIVKNRIIRMQKGMEVGMIEQTWKRLDGTPVHLEVKASPTVYKNQQAELLLLIDISSRKKFQTILQKSRERYQLLIQNSIDTIAVIHNGKWVFMNESGISLFEAATYEDLIGKNIYDQLHPCDHEDVKERIQNIAEQKTESEIVKQSWFTFQNRVIYTEMVCIPTTFFGEAAVQVILRDISERKQTEELMLKSEKLSIAGQLAAGIAHEIRNPLTAIKGFLQLMKPTMEGNEHYFDIVFSELSRIELILSELLMLAKPQQNAVKEYLNLKKLIGEVSALLETQANLNGIFIRTSYEKDSIYINGDQNQLKQVFINLIKNAVESMPDGGTVDIIITEDEHSVHVTVKDEGEGIPEKVLNRIGEPFLTTKEKGTGLGLMVTFNIIENHQGVIHVDSHPEKGTAFKISFPKK
notes: Sporulation kinase KinA, Bacillus subtilis (strains derived from PY79), full length; Tetramer by BMH cross-linking; also called MF3352; source: B. subtilis lacking the native kinA gene, IPTG-inducible promoter (10 μmol/L IPTG, LB), in cell extract
Regarding B2, in data set [5], the “stoichiometry N” value was determined as 4.
